Test results: US20240382610A1 (TALLAC THERAPEUTICS, published 2024)
Positions count from the first letter of the chain named.

T1: Human nectin-4 ECD-6His (TNT-175) (human, UniProt Q96NY8 32-349)
T1 construct: the entry holds the extracellular domain with the C-terminal 6His tag
T1 sequence: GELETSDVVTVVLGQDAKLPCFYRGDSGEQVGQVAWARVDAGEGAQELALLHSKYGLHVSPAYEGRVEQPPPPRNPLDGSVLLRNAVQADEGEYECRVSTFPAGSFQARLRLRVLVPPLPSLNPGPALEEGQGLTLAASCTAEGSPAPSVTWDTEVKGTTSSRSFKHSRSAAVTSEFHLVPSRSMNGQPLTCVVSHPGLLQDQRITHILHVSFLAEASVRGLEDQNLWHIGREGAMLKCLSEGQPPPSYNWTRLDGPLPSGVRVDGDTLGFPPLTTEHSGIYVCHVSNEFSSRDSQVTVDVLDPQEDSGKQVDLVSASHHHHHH

T2: Cyno nectin-4 ECD-6His (TNT-255) (cynomolgus, UniProt Q96NY8 32-349 (human entry))
T2 construct: entry includes the 6His tag
T2 chain: T1 sequence with V39A, I230V

T3: Human nectin-4-IgV-6His (TNT-252) (human, UniProt Q96NY8 32-147)
T3 construct: entry includes the 6His tag
T3 sequence: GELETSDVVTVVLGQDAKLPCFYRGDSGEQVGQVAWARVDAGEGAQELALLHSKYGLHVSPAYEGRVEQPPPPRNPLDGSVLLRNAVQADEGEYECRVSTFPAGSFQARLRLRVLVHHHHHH

T4: Mouse nectin-4 ECD-6His (TNT-250) (mouse, UniProt Q8R007 31-347)
T4 construct: entry includes the 6His tag; also called mouse nectin-4-LCD
T4 sequence: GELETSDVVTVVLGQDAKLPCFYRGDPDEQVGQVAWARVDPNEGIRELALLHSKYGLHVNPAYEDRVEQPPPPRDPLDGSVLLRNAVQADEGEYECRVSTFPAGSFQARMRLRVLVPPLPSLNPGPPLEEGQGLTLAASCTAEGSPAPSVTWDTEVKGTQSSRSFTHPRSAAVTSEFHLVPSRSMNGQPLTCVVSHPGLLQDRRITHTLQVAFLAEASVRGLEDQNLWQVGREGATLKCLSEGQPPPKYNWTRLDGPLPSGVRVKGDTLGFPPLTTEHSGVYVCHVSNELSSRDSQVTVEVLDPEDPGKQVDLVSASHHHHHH

B1: TNT-205 (antibody, human IgG1, kappa)
heavy: not shown
light: DIVMTQSPSSLSASVGDRVTITCRASQGISNYLAWYQQKPGKVPKLLIYAASTLQSGVPSRFSGSGSGTDFTLTISSLQPEDVATYYCQKYNSAPYTFGQGTKVEIKRTVAAPSVFIFPPSDEQLKSGTASVVCLLNNFYPREAKVQWKVDNALQSGNSQESVTEQDSKDSTYSLSSTLTLSKADYEKHKVYACEVTHQGLSSPVTKSFNRGEC
B2: TNT-211 (antibody, human IgG1, kappa)
heavy: not shown
light: B1 light with D70E, T74A, V83L, K90Q, Y91L, A94H, Y96I, K103R, V104L
B3: TNT-323 (antibody, V domains shown)
VH: QVQLQESGPGLVKPSETLSLTCTVSGGSISSYFWNWIRQPPGKGLEWIGYLYYIGTTNYNPSLKSRVTISVDTSKNQFSLKLNSVTAADTAVYYCARSGNYYNDAFDIWGQGTMVTVSS
VL: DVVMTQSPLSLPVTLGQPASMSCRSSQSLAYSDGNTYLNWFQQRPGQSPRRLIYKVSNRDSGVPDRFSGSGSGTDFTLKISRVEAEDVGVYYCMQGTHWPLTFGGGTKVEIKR
notes: human IgG1
B4: TNT-328 (antibody, V domains shown)
VH: QVQLQESGPGLVKPSETLSLTCTVSGGSMSSYFWSWIRQPPERGLEWVGYMYYSGNTNYNPSLKSRVTTSIDTSKNQFSLKLTSVTAADTAVYYCARSGNFYWNFDLWGRGTLVTVSS
VL: QSVLTQPPSVSGAPGQRVTISCTGSSSNIGAGYNVHWYQQLPGTAPKVLISGNSNRPSGVPDRFSGSKSGTSASLAITGLQAEDEADYYCQSYDSSLSGSAVFGGGTKLTVLG
notes: human IgG1
B5: TNT-318 (antibody, V domains shown)
VH: QVQLQESGPGLVKPSETLSLTCTVSGGSISSNYWTWIRQSAGKGLEWIGRIHISESTNYNPSLKSRVTMSVDTSKNQFSLKLSSVTAADTAVYFCAREGEWKVLGAFDIWGQGTMVTVSS
VL: QTVLTQPSSLSASPGASASLTCTLRSGINVGSYRIYWYQQKPGSPPQFLLRYKSDSDKQQGSGVPSRFSGSKDDSANAGILLISGLQSEDEADYYCMIWHSSASVFGTGTKVTVLG
notes: human IgG1
B6: TNT-327 (antibody, V domains shown)
VH: QVQLQESGPGLVKPSETLSLTCTVSGGSISDYYWIWIRQPAGKGLEWIGRIYTTGGAKYNPSLKSRVTMSIDTSKNNFSLKLSSVTAADTAVYFCARDRNWEWNFDLWGRGTLVTVSS
VL: QSALTQPASVSGSPGQSITISCTGTTSDIGSYNLVSWYQQHPGKAPKLMIYEVSMSPSGVSDRFSGSKSGSTASLTISGLQAEDEADYYCSSYAGSSTVVFGGGTRLTVLG
notes: human IgG1
B7: TNT-320 (antibody, V domains shown)
VH: QVQLVQSGAEVKKPGASVKVSCKASGYTFTVYYIHWVRQAPGQGLEWMGWISPNSGGTNYAQKFQGRVTMTRDTSISTAYMELTRLRSDDTAIFYCARQTVVTPNWGFDYWGQGTLVTVSS
VL: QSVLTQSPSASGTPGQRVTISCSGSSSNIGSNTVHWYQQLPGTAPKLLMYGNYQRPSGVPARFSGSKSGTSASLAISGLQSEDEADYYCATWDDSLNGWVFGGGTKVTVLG
notes: human IgG1
B8: TNT-321 (antibody, V domains shown)
VH: QVQLQESGPGLVKPSETLSLTCTVSGGSISSYYWSWIRQPPGKGLEWIGYIYYSGNVNYNPSLKSRVTISVDASKNQFSLKLTSVTAADTAVYYCAIGGVGAQWDAFDIWGQGTMVTVSS
VL: DIQMTQSPSAMSASVGDRVTITCRASQGISNYLAWFQQKPGKVPKRLIYAASSLQSGVPSRFSGSGSGTEFTLTISSLQPEDFATYYCLQHSFYPLTFGPGTKVDIKR
notes: human IgG1
B9: TNT-317 (antibody, V domains shown)
VH: QVQLQESGPGLVKPSETLSLTCTVSGGSISSYFWSWIRQPPGKGLEWIGYIYYSGNTNYNPSLKSRVTISVDMSKNQFSLRLSSVTAADTAVYYCARDFHHYDGSAYRWYFDLWGRGTLVTVSS
VL: QSVLTQPPSVSAAPGQKVTISCSGSSSNIGNNYVSWYQQFPGTAPKLLIYDNNKRPSGIPDRFSGSKSGTSATLGITGLQTGDEADYYCGTWDSSLNAGWVFGGGTKLTVLG
notes: human IgG1
B10: TNT-331 (antibody, V domains shown)
VH: QVHLQESGPGLVKPSETLSLTCTVSGGSIRSYYWSWIRQPAGKGLEWIGRIYTSGSTNYNPSLKSRVTMSVDTSKNRLSLKLSSVTAADTAVYYCAKENWGPSFDYWGQGTLVTVSS
VL: B9 VL with F40L, S94T, N97S, A98S, V101L
notes: human IgG1
B11: TNT-322 (antibody, V domains shown)
VH: QVQLQESGPGLVKPSATLSLTCTVSGGSISSYYWNWIRQPPGKGLEWIGYIYYSGNTNYNPSLKSRVTISVDMSKNQFSLKLNSVTAADTAVYYCARSESYGYWFFYLWGRGTLVTVSS
VL: B9 VL with N97S, W100V
notes: human IgG1
B12: TNT-324 (antibody, V domains shown)
VH: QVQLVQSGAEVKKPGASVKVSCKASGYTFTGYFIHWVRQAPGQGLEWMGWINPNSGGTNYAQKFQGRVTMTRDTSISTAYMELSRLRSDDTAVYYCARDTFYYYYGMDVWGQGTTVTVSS
VL: QTVVTQEPSLTVSPGGTVTLTCASSTGAVTSGYYPNWFQQKPGQAPRALIYSTSNKHSWTPARFSGSLLGGKAALTLSGVQPEDEAEYYCLLYYDGAHLFGGGTKLTVLG
notes: human IgG1
B13: TNT-330 (antibody, V domains shown)
VH: EVQLVESGGGLVKPGGSLRLSCAVSGFTFSSYNMNWVRQAPGKGLEWVSSISISSSYIYYADSVKGRFTISRDNAKNSLYLQMNSLRAEDTAVYYCARDRGLDDAFDIWGQGTVVTVSS
VL: DIVMTQTPLSLPVTPGEPASISCRSSQSLLDSDDGNTYLDWYLQKPGQSPQLLIYTLSYRASGVPDRFSGSGSGTDFTLKVSRVEAEDVGVYYCMQRIEFPYTFGQGTKLEIKR
notes: human IgG1

biological target: T1, Human nectin-4 ECD-6His (TNT-175); test: SPR Biacore 8K, mAb on protein A
Experimental: (§1) The running buffer was 10 mM HEPES, pH 7.4, 150 mM NaCl, 3 mM EDTA, 0.05% (v/v) Surfactant P20 (HBS-EP+). […] The nectin-4 analytes were injected in either single-cycle kinetics or multi-cycle kinetics mode at nominal starting concentrations of 300 nM or 900 nM with 3-fold serial dilutions. Association times were monitored for 120 s, and dissociation times were monitored 1800 s at 30 μL/min flow rate. The surfaces were regenerated with 10 mM glycine at pH1.7 or 75 mM phosphoric acid at pH1.6 for two pulses of 15 s at 30 μL/min flow rate.
(§2) The data were processed and analyzed with Biacore 8K Evaluation Software Version 3.0.12.15655 (Cytiva, Global Life Sciences Solutions USA LLC, Marlborough, MA). […] The responses from the nearest buffer blank injection were then subtracted from the reference subtracted data (2-1) to yield double-referenced data. These double-reference data were fit to a simple 1:1 Langmuir binding model with mass transport to determine the apparent association (ka) and dissociation rate constants (kd). The apparent equilibrium dissociation constant or affinity constant was then calculated based on their ratio as (KD=kd/ka).

Binder | Kd
B1 | 53.9 nM
B2 | 24.3 nM
B3 | 9 nM
B4 | 1.59 nM
B5 | 260 nM
B6 | 3.63 nM
B7 | 18.4 nM
B8 | 14 nM
B9 | 15.7 nM
B10 | 87.4 nM
B11 | 57.9 nM
B12 | 64.5 nM
B13 | 16.4 nM

Biological target: T2, Cyno nectin-4 ECD-6His (TNT-255)
Test: SPR Biacore 8K, mAb on protein A
Experimental: as §1, §2

Binder | Kd
B1 | 727 nM
B2 | 48.9 nM
B3 | 8.67 nM
B4 | 1.78 nM
B5 | 211 nM
B6 | 2.85 nM
B7 | 35.9 nM
B8 | 56 nM
B9 | 18.3 nM
B10 | 32.8 nM
B11 | 51.5 nM
B12 | 24.4 nM
B13 | 13.7 nM

biological target: T3, Human nectin-4-IgV-6His (TNT-252); test: SPR Biacore 8K, mAb on protein A
Experimental: as §1, §2

Binder | Kd | binding result
B1 | 75.3 nM | –
B2 | 24.3 nM | –
B3 | – | no binding (tested: up to 300 or 900 nM analyte)
B4 | – | no binding (tested: up to 300 or 900 nM analyte)
B5 | – | no binding (tested: up to 300 or 900 nM analyte)
B6 | 1.64 nM | –
B7 | 9.91 nM | –
B8 | 11.6 nM | –
B9 | – | no binding (tested: up to 300 or 900 nM analyte)
B10 | – | no binding (tested: up to 300 or 900 nM analyte)
B11 | – | no binding (tested: up to 300 or 900 nM analyte)
B12 | 30.7 nM | –
B13 | 7.3 nM | –

biological target: T4, Mouse nectin-4 ECD-6His (TNT-250); test: SPR Biacore 8K, mAb on protein A
Experimental: as §1, §2

Binder | Kd | binding result
B1 | 820 nM | –
B2 | 68.4 nM | –
B3 | – | no binding (tested: up to 300 or 900 nM analyte)
B4 | – | no binding (tested: up to 300 or 900 nM analyte)
B5 | – | no binding (tested: up to 300 or 900 nM analyte)
B6 | – | no binding (tested: up to 300 or 900 nM analyte)
B7 | – | no binding (tested: up to 300 or 900 nM analyte)
B8 | – | no binding (tested: up to 300 or 900 nM analyte)
B9 | – | no binding (tested: up to 300 or 900 nM analyte)
B10 | – | no binding (tested: up to 300 or 900 nM analyte)
B11 | – | no binding (tested: up to 300 or 900 nM analyte)
B12 | – | no binding (tested: up to 300 or 900 nM analyte)
B13 | – | no binding (tested: up to 300 or 900 nM analyte)
